Experimental findings from paper PMC2877719 (2010) are described below.

No end group written: not given here.

The target of this assay is calmodulin (Homo sapiens, UniProt P0DP23). As to the kind of experiment: FCS.

For the molecule FARLTRALTSSRGVL (also: fluorescent label, unspecified) [hEAG1 BD-N], binding was characterised by a dissociation constant (Kd) of 45 nM. In other words, the double-digit nanomolar range.
Then LRKRIVFRKI (also: GST fusion), with above 5000 nM; and RRLFQRFRQQK (also: fluorescent label, unspecified) [hEAG1 BD-C2], with 223 nM; and LRKRIVFRKI (also: fluorescent label, unspecified), with 327 nM.

A word on the Kd: it is the concentration at which binding is half-saturated. Lower therefore signals higher affinity.
